Measured values as given in paper PMC5906637.

Legend:
FXa [1] = target: FXa
FXa [2] = assay: enzyme inhibition kinetics (amidolytic activity); thrombin (36.6 nM; 3.0 µl, 10 NIH/ml) with chromogenic substrate T1637 or FXa (0.13 µM) with F3301, lunathrombase 0-0.4 µM; Michaelis-Menten fit; competitive model for thrombin, non-competitive model for FXa
human thrombin (human) [3] = assay: as above
FXa [4] = assay: other fluorescence titration; thrombin, FXa or fibrinogen (0.2 µM each) incubated with lunathrombase (0.2-1.0 µM in the methods, 0.2-1.4 µM in the legend) for 3 min at room temperature; excitation 280 nm, emission 300-425 nm; one site saturation binding curve
human fibrinogen (human) = human fibrinogen (human) (UniProt P02671); assay: as above
human thrombin (human) [5] = assay: as above

## lunathrombase (enzyme)
FXa [1]
  inhibition of prothrombin (1.4 µM) activation by FXa (0.13 µM) pre-incubated with lunathrombase (0.2 µM), SDS-PAGE: 100%
FXa [2]
  Ki: 10.3 nM
Human thrombin (human) [3]
  Ki: 26.9 nM
FXa [4]
  Kd: 1910 nM
Human fibrinogen (human)
  Kd: 552 nM
Human thrombin (human) [5]
  Kd: 249 nM
